According to patent US20170042969A1:

Target: ornithine decarboxylase (ODC) (UniProt P11926)
Assay: cell-based or functional assay

ornithine decarboxylase (ODC), sequence (P11926 whole entry): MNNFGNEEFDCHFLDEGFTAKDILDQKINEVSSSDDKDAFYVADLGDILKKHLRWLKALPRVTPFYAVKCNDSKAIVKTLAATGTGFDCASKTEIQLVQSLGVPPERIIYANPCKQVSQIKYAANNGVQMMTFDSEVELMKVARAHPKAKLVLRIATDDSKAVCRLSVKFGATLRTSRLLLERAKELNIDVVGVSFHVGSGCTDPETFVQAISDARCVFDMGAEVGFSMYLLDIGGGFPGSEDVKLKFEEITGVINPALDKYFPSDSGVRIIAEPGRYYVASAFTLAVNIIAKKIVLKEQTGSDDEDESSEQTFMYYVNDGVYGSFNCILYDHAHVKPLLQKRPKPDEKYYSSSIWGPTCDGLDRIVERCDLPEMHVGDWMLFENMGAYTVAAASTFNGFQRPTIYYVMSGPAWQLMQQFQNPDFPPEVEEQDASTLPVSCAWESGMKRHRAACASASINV

QEP (glutamine-glutamic acid-proline tripeptide)
decrease in activity of purified ODC (released CO2) after 1 h with 100 µM peptide: 40%
